Measured values as given in publication PMC10878280 (Journal of Virology, 2024).

B1: S139\1 IgG (antibody, V domains shown)
VH: QVQLQQSGTELKKPGASVKISCKATGYTFSSYWIEWIKQRPGHGLEWIGEILPEIGMTNYNENFKGKATFTANTSSNTVYMQLSSLTSEDSAVYYCARPYDYSWFAYWGQGTLVTVSA
VL: DIVMTQSQKFMSTSVGDRVSVTCKASQNVDTNVAWYQEKPGQSPKTLIYSASNRYSGVPDRFTGSASGTDFTLTITNVQSEDLAEYFCQQYNSYPYTFGGGTKLEIK
notes: not shown: ybbR, C-terminal, kept; copies: 2 + 2
B2: C05 IgG (antibody, V domains shown)
VH: QVQLQESGGGLVQPGESLRLSCVGSGSSFGESTLSYYAVSWVRQAPGKGLEWLSIINAGGGDIDYADSVEGRFTISRDNSKETLYLQMTNLRVEDTGVYYCAKHMSMQQVVSAGWERADLVGDAFDVWGQGTMVTVSS
VL: DIQLTQSPSSLSASVGDRVTLTCQASQDIRKFLNWYQQKPGKGPKLLIYDASNLQRGVPSRFSGGGSGTDFTLIISSLQPEDVGTYYCQQYDGLPFTFGGGTKVVIK
notes: as for B1
B3: FI6v3 IgG (antibody, V domains shown)
VH: QVQLVESGGGVVQPGRSLRLSCAASGFTFSTYAMHWVRQAPGKGLEWVAVISYDANYKYYADSVKGRFTISRDNSKNTLYLQMNSLRAEDTAVYYCAKDSQLRSLLYFEWLSQGYFDYWGQGTLVTVSS
VL: not shown
notes: as for B1

target: T1, hemagglutinin (HA) of A/WSN/1933, on transfected HEK-293T cells (Influenza A virus A/WSN/1933 (H1N1), UniProt P03454); assay: fluorescence imaging with FRAP of labelled antibody on transfected cells; settings: one partner purified
T1 construct: source: HEK-293T, transfected with HA-expressing plasmid, on cells

Does B1 bind?
Result: binds

Does B2 bind?
Result: binds

Does B3 bind?
Result: binds
